Laboratory results as given in the supplement of paper PMC9112550, “Optimization of the antimicrobial peptide Bac7 by deep mutational scanning” (BMC Biology, 2022).

These sequences were tested on Escherichia coli TOP10 (assay: shrunken log2 fold change of peptide-encoding DNA abundance (4.5 h post-induction vs induction); higher = less antimicrobial activity (less host growth inhibition)). Conditions: time post-induction: 4.5 h; library: site-saturation at positions 5, 18, 19, 20.
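Also: peptides expressed intracellularly from a pBAD plasmid library in pooled LB shake-flask culture, induced with 0.3% L-arabinose, DNA abundance read by NGS, three biological replicates, DESeq2 with apeglm shrinkage.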

Row | Sequence | shrunken log2 fold change
1 | RRIRNRPPRLPRPRPRPLTSPRP | -0.0977
2 | RRIRIRPPRLPRPRPRPPYLPRP | -0.612
3 | RRIRPRPPRLPRPRPRPWTEPRP | -0.204
4 | RRIRFRPPRLPRPRPRPVASPRP | 0.0266
5 | RRIRCRPPRLPRPRPRPCANPRP | 0.00335
6 | RRIRERPPRLPRPRPRPEWVPRP | 0.241
7 | RRIRWRPPRLPRPRPRPMFNPRP | -0.156
8 | RRIRMRPPRLPRPRPRPVWIPRP | -0.0455
9 | RRIRHRPPRLPRPRPRPYPKPRP | -0.193
10 | RRIRKRPPRLPRPRPRPPFTPRP | 0.243
11 | RRIRDRPPRLPRPRPRPCGWPRP | 0.335
12 | RRIRFRPPRLPRPRPRPGDAPRP | 0.158
13 | RRIRTRPPRLPRPRPRPDYVPRP | -0.0882
14 | RRIRLRPPRLPRPRPRPANFPRP | 0.0302
15 | RRIRLRPPRLPRPRPRPYVDPRP | -0.0393
16 | RRIRTRPPRLPRPRPRPQHRPRP | -0.0713
17 | RRIRGRPPRLPRPRPRPQRKPRP | 0.471
18 | RRIRLRPPRLPRPRPRPYLAPRP | -0.756
19 | RRIRSRPPRLPRPRPRPWKPPRP | -0.0117
20 | RRIRLRPPRLPRPRPRPRRWPRP | 0.497
21 | RRIRDRPPRLPRPRPRPLQWPRP | 0.219
22 | RRIRGRPPRLPRPRPRPDLLPRP | 1.51
23 | RRIRTRPPRLPRPRPRPHTSPRP | -0.301
24 | RRIRERPPRLPRPRPRPTGMPRP | -0.128
25 | RRIRTRPPRLPRPRPRPIISPRP | -0.0891

Row | Sequence | shrunken log2 fold change
26 | RRIRVRPPRLPRPRPRPFKAPRP | -0.316
27 | RRIRWRPPRLPRPRPRPQIYPRP | -0.000758
28 | RRIRQRPPRLPRPRPRPIEHPRP | 0.0215
29 | RRIRVRPPRLPRPRPRPYNKPRP | -0.707
30 | RRIRIRPPRLPRPRPRPWPHPRP | -0.394
31 | RRIRKRPPRLPRPRPRPFEFPRP | 0.0169
32 | RRIRWRPPRLPRPRPRPEVSPRP | 0.269
33 | RRIRIRPPRLPRPRPRPENHPRP | -0.143
34 | RRIRRRPPRLPRPRPRPDWTPRP | -0.133
35 | RRIRRRPPRLPRPRPRPKGKPRP | 0.195
36 | RRIRVRPPRLPRPRPRPHTSPRP | -0.643
37 | RRIRDRPPRLPRPRPRPAGTPRP | 0.207
38 | RRIRWRPPRLPRPRPRPAYNPRP | -0.389
39 | RRIRGRPPRLPRPRPRPNGIPRP | 0.287
40 | RRIRYRPPRLPRPRPRPGQCPRP | 0.00338
41 | RRIRHRPPRLPRPRPRPDYDPRP | -0.278
42 | RRIRDRPPRLPRPRPRPYNYPRP | -0.27
43 | RRIRCRPPRLPRPRPRPCWKPRP | -0.174
44 | RRIRWRPPRLPRPRPRPENDPRP | -0.0396
45 | RRIRIRPPRLPRPRPRPHPHPRP | -0.496
46 | RRIRPRPPRLPRPRPRPIFCPRP | -0.0959
47 | RRIRKRPPRLPRPRPRPRREPRP | 0.853
48 | RRIRGRPPRLPRPRPRPFVNPRP | -0.0813
49 | RRIRSRPPRLPRPRPRPTMLPRP | -0.119
50 | RRIRHRPPRLPRPRPRPNHTPRP | -1.04

Row | Sequence | shrunken log2 fold change
51 | RRIRHRPPRLPRPRPRPDGSPRP | -0.0231
52 | RRIRGRPPRLPRPRPRPICMPRP | 0.454
53 | RRIRWRPPRLPRPRPRPHSCPRP | -0.0379
54 | RRIRCRPPRLPRPRPRPRDNPRP | 2.6
55 | RRIRCRPPRLPRPRPRPATPPRP | 1.34
56 | RRIRNRPPRLPRPRPRPGDRPRP | 0.0819
57 | RRIRARPPRLPRPRPRPFHGPRP | 0.0917
58 | RRIRARPPRLPRPRPRPKKRPRP | 0.626
59 | RRIRHRPPRLPRPRPRPCYHPRP | -0.00149
60 | RRIRARPPRLPRPRPRPNSDPRP | 0.0804
61 | RRIRGRPPRLPRPRPRPSMMPRP | 0.0755
62 | RRIRGRPPRLPRPRPRPMMFPRP | 0.69
63 | RRIRYRPPRLPRPRPRPMYKPRP | -0.28
64 | RRIRARPPRLPRPRPRPGTAPRP | 0.493
65 | RRIRIRPPRLPRPRPRPHTPPRP | -0.721
66 | RRIRIRPPRLPRPRPRPRMAPRP | 0.0331
67 | RRIRMRPPRLPRPRPRPRGKPRP | 0.97
68 | RRIRKRPPRLPRPRPRPNFKPRP | 0.166
69 | RRIRARPPRLPRPRPRPLHIPRP | -0.559
70 | RRIRKRPPRLPRPRPRPKRWPRP | 0.906
71 | RRIRIRPPRLPRPRPRPYQKPRP | -0.243
72 | RRIRTRPPRLPRPRPRPCMMPRP | -0.52
73 | RRIRGRPPRLPRPRPRPCVMPRP | 0.516
74 | RRIRSRPPRLPRPRPRPQTLPRP | -0.119
75 | RRIRWRPPRLPRPRPRPGWIPRP | 0.207

Row | Sequence | shrunken log2 fold change
76 | RRIRERPPRLPRPRPRPNQHPRP | -0.228
77 | RRIRNRPPRLPRPRPRPVEAPRP | 0.277
78 | RRIRNRPPRLPRPRPRPKIYPRP | -0.0429
79 | RRIRERPPRLPRPRPRPHCLPRP | -0.138
80 | RRIRIRPPRLPRPRPRPSWKPRP | -0.242
81 | RRIRHRPPRLPRPRPRPIWQPRP | -0.123
82 | RRIRHRPPRLPRPRPRPCYYPRP | -0.258
83 | RRIRRRPPRLPRPRPRPEWFPRP | -0.159
84 | RRIRHRPPRLPRPRPRPSWHPRP | -0.759
85 | RRIRERPPRLPRPRPRPCWPPRP | 0.0214
86 | RRIRYRPPRLPRPRPRPSTGPRP | -0.0197
87 | RRIRKRPPRLPRPRPRPIRQPRP | 0.0556
88 | RRIRCRPPRLPRPRPRPAKQPRP | -0.0271
89 | RRIRARPPRLPRPRPRPWSYPRP | -0.0574
90 | RRIRLRPPRLPRPRPRPPEFPRP | 0.0526
91 | RRIRMRPPRLPRPRPRPPEYPRP | -0.035
92 | RRIRFRPPRLPRPRPRPMKVPRP | -0.344
93 | RRIRERPPRLPRPRPRPWSLPRP | -0.0112
94 | RRIRRRPPRLPRPRPRPAQYPRP | 0.34
95 | RRIRARPPRLPRPRPRPAEMPRP | -0.0298
96 | RRIRQRPPRLPRPRPRPDFQPRP | -0.0253
97 | RRIRNRPPRLPRPRPRPDVLPRP | -0.0481
98 | RRIRGRPPRLPRPRPRPHMIPRP | 0.0265
99 | RRIRCRPPRLPRPRPRPLWLPRP | -0.0572
100 | RRIRQRPPRLPRPRPRPEADPRP | 0.138

Row | Sequence | shrunken log2 fold change
101 | RRIRDRPPRLPRPRPRPEPSPRP | 0.885
102 | RRIRKRPPRLPRPRPRPPRSPRP | 2.69
103 | RRIRRRPPRLPRPRPRPQKEPRP | 0.00366
104 | RRIRMRPPRLPRPRPRPIQIPRP | -0.155
105 | RRIRLRPPRLPRPRPRPDNNPRP | -0.444
106 | RRIRVRPPRLPRPRPRPWRFPRP | -0.0846
107 | RRIRSRPPRLPRPRPRPVLDPRP | -0.058
108 | RRIRVRPPRLPRPRPRPYGRPRP | -0.0856
109 | RRIRSRPPRLPRPRPRPSPWPRP | -0.0643
110 | RRIRERPPRLPRPRPRPAKCPRP | -0.237
111 | RRIRHRPPRLPRPRPRPFSLPRP | -0.277
112 | RRIRFRPPRLPRPRPRPVPVPRP | 0.143
113 | RRIRERPPRLPRPRPRPPMQPRP | 0.225
114 | RRIRLRPPRLPRPRPRPFMWPRP | -0.121
115 | RRIRNRPPRLPRPRPRPVHWPRP | 0.384
116 | RRIRSRPPRLPRPRPRPHCGPRP | -0.0953
117 | RRIRERPPRLPRPRPRPFGWPRP | 0.213
118 | RRIRLRPPRLPRPRPRPELFPRP | 0.303
119 | RRIRDRPPRLPRPRPRPNAVPRP | -0.101
120 | RRIRFRPPRLPRPRPRPIWAPRP | 0.0219
121 | RRIRMRPPRLPRPRPRPDSEPRP | 1.82
122 | RRIRDRPPRLPRPRPRPMFAPRP | 0.199
123 | RRIRTRPPRLPRPRPRPICAPRP | 0.0827
124 | RRIRWRPPRLPRPRPRPFARPRP | 0.188
125 | RRIRSRPPRLPRPRPRPQMPPRP | 0.189

Row | Sequence | shrunken log2 fold change
126 | RRIRWRPPRLPRPRPRPSVKPRP | -0.159
127 | RRIRWRPPRLPRPRPRPLYFPRP | -0.613
128 | RRIRQRPPRLPRPRPRPIYSPRP | -0.1
129 | RRIRDRPPRLPRPRPRPHEYPRP | -0.01
130 | RRIRFRPPRLPRPRPRPMHCPRP | -0.253
131 | RRIRDRPPRLPRPRPRPRASPRP | 0.214
132 | RRIRWRPPRLPRPRPRPLGFPRP | 0.239
133 | RRIRARPPRLPRPRPRPCWSPRP | -0.142
134 | RRIRGRPPRLPRPRPRPRCQPRP | 0.835
135 | RRIRARPPRLPRPRPRPTVYPRP | -0.00696
136 | RRIRPRPPRLPRPRPRPTDLPRP | -0.0166
137 | RRIRARPPRLPRPRPRPAFDPRP | 1
138 | RRIRARPPRLPRPRPRPNTCPRP | 0.136
139 | RRIRIRPPRLPRPRPRPCHDPRP | -0.223
140 | RRIRGRPPRLPRPRPRPPPPPRP | 1.54
141 | RRIRVRPPRLPRPRPRPRYYPRP | -0.0159
142 | RRIRFRPPRLPRPRPRPLMYPRP | -0.323
143 | RRIRVRPPRLPRPRPRPAIYPRP | -0.294
144 | RRIRERPPRLPRPRPRPIFFPRP | 0.0602
145 | RRIRSRPPRLPRPRPRPMGQPRP | 0.0126
146 | RRIRSRPPRLPRPRPRPEMDPRP | -0.0847
147 | RRIRQRPPRLPRPRPRPHIPPRP | -0.0245
148 | RRIRNRPPRLPRPRPRPDGMPRP | 0.0319
149 | RRIRFRPPRLPRPRPRPKINPRP | -0.385
150 | RRIRMRPPRLPRPRPRPRSIPRP | 0.667
